Test results from PMC5264652 (EBioMedicine, 2016).
“And” between values parts separate entries of the source, which are not always exact repeats. Equal entries are not always repeated. Where two headings read alike, the source gives them in different places.

B2: Human fibrinogen (complex)
chain 1: ADSGEGDFLAEGGGVRGPRVVERHQSACKDSDWPFCSDEDWNYKCPSGCRMKGLIDEVNQDFTNRINKLKNSLFEYQKNNKDSHSLTTNIMEILRGDFSSANNRDNTYNRVSEDLRSRIEVLKRKVIEKVQHIQLLQKNVRAQLVDMKRLEVDIDIKIRSCRGSCSRALAREVDLKDYEDQQKQLEQVIAKDLLPSRDRQHLPLIKMKPVPDLVPGNFKSQLQKVPPEWKALTDMPQMRMELERPGGNEITRGGSTSYGTGSETESPRNPSSAGSWNSGSSGPGSTGNRNPGSSGTGGTATWKPGSSGPGSTGSWNSGSSGTGSTGNQNPGSPRPGSTGTWNPGSSERGSAGHWTSESSVSGSTGQWHSESGSFRPDSPGSGNARPNNPDWGTFEEVSGNVSPGTRREYHTEKLVTSKGDKELRTGKEKVTSGSTTTTRRSCSKTVTKTVIGPDGHKEVTKEVVTSEDGSDCPEAMDLGTLSGIGTLDGFRHRHPDEAAFFDTASTGKTFPGFFSPMLGEFVSETESRGSESGIFTNTKESSSHHPGIAEFPSRGKSSSYSKQFTSSTSYNRGDSTFESKSYKMADEAGSEADHEGTHSTKRGHAKSRPVRGIHTSPLGKPSLSP
chain 2: QGVNDNEEGFFSARGHRPLDKKREEAPSLRPAPPPISGGGYRARPAKAAATQKKVERKAPDAGGCLHADPDLGVLCPTGCQLQEALLQQERPIRNSVDELNNNVEAVSQTSSSSFQYMYLLKDLWQKRQKQVKDNENVVNEYSSELEKHQLYIDETVNSNIPTNLRVLRSILENLRSKIQKLESDVSAQMEYCRTPCTVSCNIPVVSGKECEEIIRKGGETSEMYLIQPDSSVKPYRVYCDMNTENGGWTVIQNRQDGSVDFGRKWDPYKQGFGNVATNTDGKNYCGLPGEYWLGNDKISQLTRMGPTELLIEMEDWKGDKVKAHYGGFTVQNEANKYQISVNKYRGTAGNALMDGASQLMGENRTMTIHNGMFFSTYDRDNDGWLTSDPRKQCSKEDGGGWWYNRCHAANPNGRYYWGGQYTWDMAKHGTDDGVVWMNWKGSWYSMRKMSMKIRPFFPQQ
chain 3: YVATRDNCCILDERFGSYCPTTCGIADFLSTYQTKVDKDLQSLEDILHQVENKTSEVKQLIKAIQLTYNPDESSKPNMIDAATLKSRKMLEEIMKYEASILTHDSSIRYLQEIYNSNNQKIVNLKEKVAQLEAQCQEPCKDTVQIHDITGKDCQDIANKGAKQSGLYFIKPLKANQQFLVYCEIDGSGNGWTVFQKRLDGSVDFKKNWIQYKEGFGHLSPTGTTEFWLGNEKIHLISTQSAIPYALRVELEDWNGRTSTADYAMFKVGPEADKYRLTYAYFAGGDAGDAFDGFDFGDDPSDKFFTSHNGMQFSTWDNDNDKFEGNCAEQDGSGWWMNKCHAGHLNGVYYQGGTYSKASTPNGYDNGIIWATWKTRWYSMKKTTMKIIPFNRLTIGEGQQHHLGGAKQAGDV
B3: ClfA_(229–545) (domain or fragment)
chain: GTDITNQLTNVTVGIDSGTTVYPHQAGYVKLNYGFSVPNSAVKGDTFKITVPKELNLNGVTSTAKVPPIMAGDQVLANGVIDSDGNVIYTFTDYVNTKDDVKATLTMPAYIDPENVKKTGNVTLATGIGSTTANKTVLVDYEKYGKFYNLSIKGTIDQIDKTNNTYRQTIYVNPSGDNVIAPVLTGNLKPNTDSNALIDQQNTSIKVYKVDNAADLSESYFVNPENFEDVTNSVNITFPNPNQYKVEFNTPDDQITTPYIVVVNGHIDPNSKGDLALRSTLYGYNSNIIWRSMSWDNEVAFNNGSGSGDGIDKPVVP

How the values were obtained:
Assay in all cases: SPR
[1] = biological target: GST-tagged Fg γ peptide
[2] = biological target: T1, Fibrinogen D-fragment (UniProt P02671;P02675;P02679-2)
T1 sequence 1: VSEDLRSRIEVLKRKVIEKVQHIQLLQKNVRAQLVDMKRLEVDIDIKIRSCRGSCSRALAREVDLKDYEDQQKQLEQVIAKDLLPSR
T1 sequence 2: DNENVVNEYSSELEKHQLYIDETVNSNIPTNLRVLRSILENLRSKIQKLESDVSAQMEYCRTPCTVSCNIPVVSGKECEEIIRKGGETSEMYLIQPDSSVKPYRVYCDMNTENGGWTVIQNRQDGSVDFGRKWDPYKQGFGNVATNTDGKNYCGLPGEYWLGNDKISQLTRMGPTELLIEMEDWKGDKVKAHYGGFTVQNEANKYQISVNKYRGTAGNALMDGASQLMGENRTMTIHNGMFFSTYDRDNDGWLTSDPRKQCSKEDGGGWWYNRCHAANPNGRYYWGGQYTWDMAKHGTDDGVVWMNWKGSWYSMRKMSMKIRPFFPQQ
T1 sequence 3: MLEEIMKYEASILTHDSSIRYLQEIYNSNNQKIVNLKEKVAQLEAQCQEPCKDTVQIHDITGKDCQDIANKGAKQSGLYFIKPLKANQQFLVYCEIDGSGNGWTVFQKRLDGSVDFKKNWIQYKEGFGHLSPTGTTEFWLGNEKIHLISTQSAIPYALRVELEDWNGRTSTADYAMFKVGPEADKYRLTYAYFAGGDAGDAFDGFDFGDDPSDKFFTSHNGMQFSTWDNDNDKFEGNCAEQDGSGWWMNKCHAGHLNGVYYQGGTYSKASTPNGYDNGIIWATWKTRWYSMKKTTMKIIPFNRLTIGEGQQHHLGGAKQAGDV

[3] = biological target: B2
[4] = biological target: B3
[5] = biological target: T1, Fibrinogen D-fragment; remark: listed apart in the source
[6] = biological target: B2; remark: listed apart in the source
[7] = biological target: ClfA_(229–545) (S. aureus strain Newman, UniProt Q53653)

## ClfA N3 (ClfA_(370–559)) (from UniProt Q53653 370-559) (domain or fragment)
[1]
  fold lower affinity against intact Fg or Fg D-fragment: 10 fold

## ClfA_(229–545) (from UniProt Q53653 229-545) (domain or fragment)
[1]
  fold difference in KD against Fg or Fg D-fragment: 50 fold

B1: ClfA N3 (ClfA_(370–559)) (domain or fragment)
chain: EKYGKFYNLSIKGTIDQIDKTNNTYRQTIYVNPSGDNVIAPVLTGNLKPNTDSNALIDQQNTSIKVYKVDNAADLSESYFVNPENFEDVTNSVNITFPNPNQYKVEFNTPDDQITTPYIVVVNGHIDPNSKGDLALRSTLYGYNSNIIWRSMSWDNEVAFNNGSGSGDGIDKPVVPEQPDEPGEIEPIPE
[2]
  fold of KD against ClfA229-545 on the same protein: ~10 fold
[3]
  fold of KD against ClfA229-545 on the same protein: ~10 fold

## B2
[4]
  IC50: 430 nM and 480 nM

## B3
[3]
  Kd: 610 nM and 660 nM

B4: ClfAPWY (domain or fragment)
chain: VAADAPAAGTDITNQLTNVTVGIDSGTTVYPHQAGYVKLNYGFSVPNSAVKGDTFKITVPKELNLNGVTSTAKVPPIMAGDQVLANGVIDSDGNVIYTFTDYVNTKDDVKATLTMPAYIDPENVKKTGNVTLATGIGSTTANKTVLVDYEKYGKFYNLSIKGTIDQIDKTNNTYRQTIYVNPSGDNVIAPVLTGNLKPNTDSNALIDQQNTSIKVYKVDNAADLSESYFVNPENFEDVTNSVNITFANPNQYKVEFNTPDDQITTPYIVVVNGHIDPNSKGDLALRSTLYGANSNIIARSMSWDNEVAFNNGSGSGDGIDKPVVPEQPDEPGEIEPIPE
[5]
  Kd: 17000 nM
[6]
  Kd: 10000 nM

B5: tefibazumab (antibody, V domains shown)
VH: QVQLKESGPGLVKPSQTLSITCTISGFSLSRYSVHWVRQPPGKGLEWLGMIWGGGNTDYNSALKSRLSISKDNSKNQVFLKMNSLTAADTAVYYCARKGEFYYGYDGFVYWGQGTLVTVSS
VL: DIVMTQSPDSLAVSLGERVTMNCKSSQSVLYSSNQKNYLAWYQQKPGQSPKLLIYWASTRESGVPDRFSGSGSGTDFTLTISSVQAEDLAVYYCHQYLSSYTFGGGTKLEIK
[7]
  IC50: 330 nM and 390 nM
  Kd: 0.79 nM and 0.81 nM and 0.7 nM
  koff: 0.00049 s⁻¹
  kon: 594000 M⁻¹ s⁻¹
